Where “and” joins values, the source holds several entries; their conditions need not be identical. Equal entries are not always repeated.
Conditions: Rattus norvegicus, pH 7.2, 20 °C, CD, Potassium phosphate 20 mM, reversible: yes, whole UniProt chain shown

B1: Fatty acid-binding protein, brain wild type, P55051 (protein)
chain: MVDAFCATWKLTDSQNFDEYMKALGVGFATRQVGNVTKPTVIISQEGGKVVIRTQCTFKNTEISFQLGEEFEETSIDDRNCKSVIRLDGDKLIHVQKWDGKETNCVREIKDGKMVVTLTFGDVVAVRCYEKA
- denaturant m value (DimethylUrea, NaCl 1 M): 1.81 kcal/mol/M
- denaturant midpoint (higher = more stable) (DimethylUrea, NaCl 1 M): 5.36 M
- unfolding free energy (DimethylUrea, NaCl 1 M): 9.71 kcal/mol
- denaturant m value (GdnHCl): 4.21 kcal/mol/M
- denaturant midpoint (higher = more stable) (GdnHCl): 1.33 M
- unfolding free energy (GdnHCl): 5.58 kcal/mol
- denaturant m value (GdnSCN): 14 kcal/mol/M
- denaturant midpoint (higher = more stable) (GdnSCN): 0.73 M
- unfolding free energy (GdnSCN): 10.2 kcal/mol
- denaturant m value (Urea): 1.82 kcal/mol/M and 2.17 kcal/mol/M
- denaturant midpoint (higher = more stable) (Urea): 5.43 M and 5.79 M
- unfolding free energy (Urea): 9.91 kcal/mol and 12.6 kcal/mol

Reference: FireProtDB (doi:10.1021/bi00493a013)
